The target in experiment [1] is T1, human LAG-3 on cells (HEK293-hLAG-3 stable cell line) (human, UniProt P18627 23-525).
T1 sequence: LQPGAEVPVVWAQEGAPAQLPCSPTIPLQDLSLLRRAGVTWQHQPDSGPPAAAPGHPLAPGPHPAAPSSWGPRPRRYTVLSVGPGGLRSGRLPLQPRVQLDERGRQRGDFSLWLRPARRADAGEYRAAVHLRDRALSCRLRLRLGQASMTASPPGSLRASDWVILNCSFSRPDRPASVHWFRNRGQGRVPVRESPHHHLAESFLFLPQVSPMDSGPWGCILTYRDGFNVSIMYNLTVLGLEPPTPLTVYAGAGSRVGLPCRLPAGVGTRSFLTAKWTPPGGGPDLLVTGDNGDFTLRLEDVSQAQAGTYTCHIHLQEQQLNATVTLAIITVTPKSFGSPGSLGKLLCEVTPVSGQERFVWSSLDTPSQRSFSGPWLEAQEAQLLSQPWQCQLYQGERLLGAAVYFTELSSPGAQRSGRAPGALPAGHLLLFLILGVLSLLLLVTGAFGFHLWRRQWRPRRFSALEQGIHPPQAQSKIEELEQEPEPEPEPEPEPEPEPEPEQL
Briefly: FACS, HEK293-hLAG-3, antibody 0 nM. For orientation: Flow cytometry measures light scatter and fluorescence of single cells or particles in a stream.

In experiment [2] the target is T1, human LAG-3 on cells (HEK293-hLAG-3 …). Briefly: FACS, HEK293-hLAG-3, antibody 0.064 nM.
For experiment [3] the target is unchanged. Briefly: FACS, HEK293-hLAG-3, antibody 8 nM.
Experiment [4] has the same target. Briefly: FACS, HEK293-hLAG-3, antibody 1.6 nM.
For experiment [5] the target is unchanged. Briefly: FACS, HEK293-hLAG-3, antibody 40 nM.
The target is the same in experiment [6]. Briefly: FACS, HEK293-hLAG-3, antibody 0.013 nM.
For experiment [7] the target is unchanged. Briefly: FACS, HEK293-hLAG-3, antibody 0.32 nM.

B1: 556F6B8-2 humanized antibody (antibody, V domains shown)
VH: QVQLQESGPGLVKPSETLSLTCTVSGFSIIKYGVHWIRQPPGKGLEWIGVIWRGGITDYNAAFMSRVTISVDTSKNQFSLKLSSVTAADTAVYYCARWDGPLAMDYWGQGTTVTVSS
VL: DIQLTQSPSFLSASVGDRVTITCKASQDVGTTVAWYQQKPGKAPKLLIYWASTRHTGVPSRFSGSGSGTEFTLTISSLQPEDFATYYCQQYSSYPYTFGQGTKLEIK
Turning to B1, the Mean fluorescence intensity came to 4 in experiment [1]; 5 in experiment [2]; 37 in experiment [3]; 23 in experiment [4]; 49 in experiment [5]; 4 in experiment [6]. In addition, the Mean fluorescence intensity in experiment [7] is 10.

B2: 556F6B8-10 humanized antibody (antibody, V domains shown)
VH: QVQLQESGPGLVKPSETLSLTCTVSGFSIIKYGVHWIRQPPGKGLEWIGVIWRGGITDYNAAFMSRVTISVDTSKNQFSLKLSSVTAADTAVYYCARWDGPLAMDYWGQGTTVTVSS
VL: DIVLTQSPSFLSASVGDRVTITCKASQDVGTTVAWYQQKPGKSPKLLIYWASTRHTGVPSRFSGSGSGTEFTLTISSLQPEDFATYYCQQYSSYPYTFGQGTKLEIK
Take B2: the Mean fluorescence intensity turned out to be 4 in experiment [1]; 6 in experiment [2]; 44 in experiment [3]; 27 in experiment [4]; 54 in experiment [5]; 4 in experiment [6]. This molecule also gave a Mean fluorescence intensity in experiment [7] of 11.

B3: 556F6B8-5 humanized antibody (antibody, V domains shown)
VH: QVQLQESGPGLVKPSETLSLTCTVSGGSISKYGVHWIRQPPGKGLEWIGVIWRGGITDYNAAFMSRVTISVDTSKNQFSLKLSSVTAADTAVYYCARWDGPLAMDYWGQGTTVTVSS
VL: DIVLTQSPSFLSASVGDRVTITCKASQDVGTTVAWYQQKPGKAPKLLIYWASTRHTGVPSRFSGSGSGTEFTLTISSLQPEDFATYYCQQYSSYPYTFGQGTKLEIK
Consider B3, for which the Mean fluorescence intensity was found to be 4 in experiment [1]; 4 in experiment [2]; 16 in experiment [3]; 8 in experiment [4]; 32 in experiment [5]; 4 in experiment [6]. In experiment [7], this molecule yielded a Mean fluorescence intensity of 5.

B4: 556F6B8-12 humanized antibody (antibody, V domains shown)
VH: RVQLQESGPGLVKPSETLSLTCTVSGFSLIKYGVHWIRQPPGKGLEWIGVIWRGGITDYNAAFMSRVTISKDTSKSQVSLKLSSVTAADTAVYYCAKWDGPLAMDYWGQGTTVTVSS
VL: DIVLTQSPSFLSASVGDRVTITCKASQDVGTTVAWYQQKPGKSPKLLIYWASTRHTGVPSRFSGSGSGTEFTLTISSLQPEDFATYYCQQYSSYPYTFGQGTKLEIK
As for B4, the Mean fluorescence intensity was 4 in experiment [1]; 15 in experiment [2]; 83 in experiment [3]; 70 in experiment [4]; 87 in experiment [5]; 8 in experiment [6]. Also, the Mean fluorescence intensity in experiment [7] was determined as 36.

B5: 556F6B8-4 humanized antibody (antibody, V domains shown)
VH: RVQLQESGPGLVKPSETLSLTCTVSGFSLIKYGVHWIRQPPGKGLEWIGVIWRGGITDYNAAFMSRVTISKDTSKSQVSLKLSSVTAADTAVYYCAKWDGPLAMDYWGQGTTVTVSS
VL: DIQLTQSPSFLSASVGDRVTITCKASQDVGTTVAWYQQKPGKAPKLLIYWASTRHTGVPSRFSGSGSGTEFTLTISSLQPEDFATYYCQQYSSYPYTFGQGTKLEIK
In the case of B5, the Mean fluorescence intensity in experiment [1] came to 4; in experiment [2], 14; in experiment [3], 77; in experiment [4] it was 62; in experiment [5], 82; in experiment [6] it was 7. The Mean fluorescence intensity in experiment [7] is 32.

B6: 556F6B8-11 humanized antibody (antibody, V domains shown)
VH: QVQLQESGPGLVKPSETLSLTCTVSGFSLIKYGVHWIRQPPGKGLEWIGVIWRGGITDYNAAFMSRVTISKDTSKSQVSLKLSSVTAADTAVYYCARWDGPLAMDYWGQGTTVTVSS
VL: DIVLTQSPSFLSASVGDRVTITCKASQDVGTTVAWYQQKPGKSPKLLIYWASTRHTGVPSRFSGSGSGTEFTLTISSLQPEDFATYYCQQYSSYPYTFGQGTKLEIK
For B6, the Mean fluorescence intensity stood at 4 in experiment [1]; 20 in experiment [2]; 97 in experiment [3]; 87 in experiment [4]; 100 in experiment [5]; 9 in experiment [6]. Besides, the Mean fluorescence intensity in experiment [7] amounted to 51.

B7: 556F6B8-9 humanized antibody (antibody, V domains shown)
VH: QVQLQESGPGLVKPSETLSLTCTVSGGSISKYGVHWIRQPPGKGLEWIGVIWRGGITDYNAAFMSRVTISVDTSKNQFSLKLSSVTAADTAVYYCARWDGPLAMDYWGQGTTVTVSS
VL: DIVLTQSPSFLSASVGDRVTITCKASQDVGTTVAWYQQKPGKSPKLLIYWASTRHTGVPSRFSGSGSGTEFTLTISSLQPEDFATYYCQQYSSYPYTFGQGTKLEIK
With B7, the Mean fluorescence intensity in experiment [1] was 4; in experiment [2], 4; in experiment [3] it was 18; in experiment [4], 9; in experiment [5], 33; in experiment [6], 4. In experiment [7], this molecule gave a Mean fluorescence intensity of 5.

B8: 556F6B8-8 humanized antibody (antibody, V domains shown)
VH: RVQLQESGPGLVKPSETLSLTCTVSGFSLIKYGVHWIRQPPGKGLEWIGVIWRGGITDYNAAFMSRVTISKDTSKSQVSLKLSSVTAADTAVYYCAKWDGPLAMDYWGQGTTVTVSS
VL: DIVLTQSPSFLSASVGDRVTITCKASQDVGTTVAWYQQKPGKAPKLLIYWASTRHTGVPSRFSGSGSGTEFTLTISSLQPEDFATYYCQQYSSYPYTFGQGTKLEIK
Take B8: the Mean fluorescence intensity came to 4 in experiment [1]; 15 in experiment [2]; 79 in experiment [3]; 64 in experiment [4]; 83 in experiment [5]; 8 in experiment [6]. The molecule further registered a Mean fluorescence intensity in experiment [7] of 36.

The values are drawn from patent publication US20210155689A1 (SHANGHAI PHARMAEXPLORER, published 2021).
